Patent publication US20100291108A1 (published 2010)

T1: IREM-1Δ2 deletion construct (human)
T1 construct: Deletion construct of IREM-1 expressed in 293 cells
T1 chain: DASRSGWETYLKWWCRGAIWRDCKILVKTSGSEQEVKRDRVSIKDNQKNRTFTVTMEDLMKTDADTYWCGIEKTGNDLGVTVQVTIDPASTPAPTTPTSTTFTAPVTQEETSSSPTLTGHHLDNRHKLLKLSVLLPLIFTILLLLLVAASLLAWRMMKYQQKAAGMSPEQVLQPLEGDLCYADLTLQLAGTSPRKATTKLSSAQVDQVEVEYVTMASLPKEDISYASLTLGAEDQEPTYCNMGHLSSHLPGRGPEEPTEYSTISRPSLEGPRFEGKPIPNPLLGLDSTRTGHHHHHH

T2: IREM-1Δ3 deletion construct (human)
T2 construct: Deletion construct of IREM-1 expressed in 293 cells
T2 chain: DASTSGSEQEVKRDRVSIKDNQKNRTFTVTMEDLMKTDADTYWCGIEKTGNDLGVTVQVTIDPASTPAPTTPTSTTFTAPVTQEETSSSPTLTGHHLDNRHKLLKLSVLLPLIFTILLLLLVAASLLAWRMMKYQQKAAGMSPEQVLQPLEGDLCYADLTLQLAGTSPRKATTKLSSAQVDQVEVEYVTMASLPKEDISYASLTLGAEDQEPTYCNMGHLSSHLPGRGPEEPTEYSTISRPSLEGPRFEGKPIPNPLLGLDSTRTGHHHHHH

T3: IREM-1Δ6 deletion construct (human)
T3 construct: Deletion construct of IREM-1 expressed in 293 cells
T3 chain: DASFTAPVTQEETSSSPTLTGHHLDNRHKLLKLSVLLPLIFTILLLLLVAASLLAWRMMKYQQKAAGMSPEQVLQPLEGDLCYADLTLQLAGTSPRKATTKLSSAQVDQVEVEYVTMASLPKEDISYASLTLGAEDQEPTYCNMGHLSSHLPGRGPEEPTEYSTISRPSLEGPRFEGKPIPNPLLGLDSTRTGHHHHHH

T4: IREM-1Δ4 deletion construct (human)
T4 construct: Deletion construct of IREM-1 expressed in 293 cells
T4 chain: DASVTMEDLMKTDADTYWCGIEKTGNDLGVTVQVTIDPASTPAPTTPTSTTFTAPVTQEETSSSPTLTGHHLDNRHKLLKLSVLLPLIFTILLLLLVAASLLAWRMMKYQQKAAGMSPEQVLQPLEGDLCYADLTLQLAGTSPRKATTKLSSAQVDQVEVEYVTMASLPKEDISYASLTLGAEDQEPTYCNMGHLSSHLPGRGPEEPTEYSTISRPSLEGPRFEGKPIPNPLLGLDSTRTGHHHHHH

T5: IREM-1Δ5 deletion construct (human)
T5 construct: Deletion construct of IREM-1 expressed in 293 cells
T5 chain: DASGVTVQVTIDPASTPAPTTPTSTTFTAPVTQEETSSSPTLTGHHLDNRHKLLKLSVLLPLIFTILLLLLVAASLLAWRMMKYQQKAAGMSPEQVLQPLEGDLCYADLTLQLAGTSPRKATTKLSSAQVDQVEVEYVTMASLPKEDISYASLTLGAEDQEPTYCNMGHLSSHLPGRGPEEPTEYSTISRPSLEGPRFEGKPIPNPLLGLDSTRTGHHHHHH

B1: chimeric anti-IREM-1 monoclonal antibody B11 (antibody, human IgG1, V domains shown)
VH: QIQLVQSGPELEKPGETVKISCKASGYTFTNYPMHWVKQAPGKGLKWMGWINTYSGVPTYADDFKGRFAFSLETSASTAYLQINNLKNEDMATYFCARMDYYSNGFNYWGQGTTLTVSS
VL: DVLMTQTPLSLPVSLGDQASISCRSSQSIVHSNGNTYLEWYLQKPGQSPKLLIYKVSNRFSGVPDRFSGSGSGTDFTLKISRVEAEDLGVYYCFQGSHVPWTFGGGTKLEIKR
notes: No cleavage site is stated; also called mAb B11; VL2VH2
B2: chimeric anti-IREM-1 monoclonal antibody D12 (antibody, human IgG1, V domains shown)
VH: EIQLQQSGAELVRPGTSVKVSCKASGYAFTNYLIEWVKQRPGQGLEWIGVINPGSGGSYYNEKFKGKTTLTADKSSSTAYMQLSSLAFDDSAVYFCARSESNYSYYYAMDYWGQGTSVIVSS
VL: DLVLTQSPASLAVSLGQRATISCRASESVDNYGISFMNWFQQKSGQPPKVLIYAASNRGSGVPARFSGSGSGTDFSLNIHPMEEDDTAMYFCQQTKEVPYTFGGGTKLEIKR
notes: No cleavage site is stated; also called mAb D12; clone #D12
B3: chimeric anti-IREM-1 monoclonal antibody 871.1 (antibody, human IgG1, V domains shown)
VH: EVKLVESGGGLVQPGGSLSLSCAASGFTFTDYYMSWVRQPPGMAPEWLGFIRNKANGYTTEYSASVKGRFTISRDDSQSILYLQMNALRAEDSATYYCAREDYGSSWGYYAMDCWGQGTSVTVSS
VL: DIVMTQSQKFMSTSVGDRVSVTCKASQNVDTNVAWYQQKPGQSPKALLYSASYRHSGVPDRFTGSGSETDFTLTITNVQSEDLAEYFCQQYNSFPLTFGSGTKLEIRR
notes: The CDC assays use an IgG2b isotype control, so the murine form may have been used there; No cleavage site is stated; also called mAb 871.1; VL1VH1

Legend:
[1] = target: T6, IREM-1-ECD-V5His recombinant protein (human, UniProt Q8TDQ1 20-156); assay: SPR (Biacore), mAb captured on the chip, antigen in solution, 25 C
T6 construct: Produced in HEK-293 cells and purified on a Ni column; also called IREM-1 V5-6His protein; recombinant IREM-1 protein containing the complete extracellular domain; not shown: C-terminal V5-His tag

[2] = target: T6, IREM-1-ECD-V5His recombinant protein; assay: SPR (Biacore), mAb captured on the chip, antigen in solution, 25 C; KD = kd/ka
Method: Kinetic rate constants (kₐ and kd) were determined using surface plasmon resonance and affinities (KD) were then calculated from the rate constants (kd/kₐ). Surface plasmon resonance was carried out on a BlAcore system (Biacore International AB, Uppsala, Sweden). […] Each of 5 concentrations was tested twice except the highest concentration which was tested 5 times in total, two times with a short dissociation of 300 seconds followed by three times with a dissociation of 60 minutes. The data sets from the long dissociation experiments were globally fit with the shorter association experiments to determine binding constants for the interactions. The analysis was carried out in HBS, pH 7.4 buffer at 25° C.

[3] = target: T1, IREM-1Δ2 deletion construct; assay: flow cytometry on 293 cells expressing the construct
[4] = target: IREM-1Δ1 deletion construct (human); assay: as above
[5] = target: T2, IREM-1Δ3 deletion construct; assay: as above
[6] = target: T3, IREM-1Δ6 deletion construct; assay: as above
[7] = target: T4, IREM-1Δ4 deletion construct; assay: as above
[8] = target: T5, IREM-1Δ5 deletion construct; assay: as above
[9] = target: human IREM-1 (full-length, on cells) (human, UniProt Q8TDQ1 20-290); assay: cell-based or functional assay

Binder | koff [1] [s⁻¹] | kon [1] [M⁻¹ s⁻¹] | Kd [2] [nM] | binding result [3] | binding result [4] | binding result [5] | binding result [6] | binding result [7] | binding result [8] | CDC (complement-dependent cytotoxicity) EC50 on 293 cells expressing IREM-1 [9] [ng/mL] | CDC EC50 on AML cell line HL-60 [9] [ng/mL] | CDC EC50 on stage M1 AML patient sample [9] [ng/mL]
B1 | 0.00066 | 282000 | 2.3 | no binding | binds | no binding | no binding | no binding | no binding | – | – | –
B2 | 0.00072 | 255000 | 2.8 | no binding | binds | no binding | no binding | no binding | no binding | – | – | –
B3 | – | 228000 | – | no binding | binds | no binding | no binding | no binding | no binding | ~10 | 1970 to 3840 | 0.0062
